Test [1] concerns the target p38α. To be noted: ref [14], cited from earlier work; for Kd: values previously published, [15], [17], [18]. The source says:
We used ITC measurements to determine the binding affinity of STEP and PTPSL for unphosphorylated ERK2 ( Table 1; Figure S1). […] This complex has a ∼3-times lower Kd (tighter binding) than the next tightest complex, ERK2:PTPSL, and a nearly 70-fold greater affinity than the weakest complex, p38α:HePTP [15]. Like STEP, PTPSL binds ERK2 more tightly (∼3.5-fold) than p38α. We also tested peptides that include the kinase specificity s ... || We also generated a chimeric protein in which we fused the PTPSLKIMKIS to STEPCAT (PSchimera; Figure 1A ). […] Thus, they only adopt a single conformation when they bind their respective MAPKs. This is different from the MAPK-binding domains (MKBD) of MAPK phosphatases (MKP; dual specificity phosphatases; DUSPs), [26]. In MKPs, the KIM sequence is part of a stable, folded domain and thus adopts a single, ordered conformation in both the unbound and MAPK-bound states, [28]. […] Our ... || (+ 1 further places)

The target of test [2] is T1, ERK2 (Rattus norvegicus, UniProt P63086).
T1 construct: gene Mapk1; made in house
The note with it: [17], cited from earlier work; for Kd: ERK2, values previously published, ref [14], [15], [18]; for tighter binding to ERK2 than to p38α: HePTP residues 15–339 and HePTP KIM-peptide residues 15–31, ref [16]. The source says:
Over the last years different groups, including ours, have studied the interaction of MAPK regulatory proteins, as well as substrates, with different MAPKs, especially ERK2, p38 and JNK [12]–[17]. However, while a plethora of cell biological data is available, much less systematic interaction data using quantitative methods, such as isothermal titration calorimetry (ITC), has been reported. This is of special interest, as recent studies have shown that while KIM-peptides derived from KIM-containing regulatory proteins and substrates readily discriminate between ERK2/p38 and JNK, they discr ... || We used ITC measurements to determine the binding affinity of STEP and PTPSL for unphosphorylated ERK2 ( Table 1; Figure S1). […] This complex has a ∼3-times lower Kd (tighter binding) than the next tightest complex, ERK2:PTPSL, and a nearly 70-fold greater affinity than the weakest complex, p38α:HePTP [15]. Like STEP, PTPSL binds ERK2 more tightly (∼3.5-fold) than p38α. We also tested peptides that include the kinase specificity s ... || Figure 3 Regulatory protein-MAPK interaction strengths. The binding strengths of each KIM-PTP (KIM peptides and KIM-containing MKBDs (in orange font), light blue; KIMKIS peptides, light purple; proteins, light pink) to p38α and ERK2 represented from weakest to tightest (largest Kd to smallest Kd) binding affinity; ‘^†’ indicates values previously published, [15], [17], [18]. KIM-PTP:MAPK complexes determined to be extended using SAXS written in normal text; KIM-PTP:MAPK complexes determined to be compact written in italics; *, compact nature of the ERK2-PTPSL complex determined by ...

Test [3] concerns the target T1, ERK2. Kind of test: Isothermal titration calorimetry with ERK2. It is filed as binding. Here is the method: The PTPSLKIM peptide (residues 331–348), STEPKIM (residues 213–229) and STEPKIMKIS (residues 213–256) were synthesized, HPLC purified and verified by mass spectrometry (MS) (>98% purity; Biosynthesis, Inc.). Expression and purification of ERK2 and PTPSLKIMKIS (residues 332–373) was carried out as previously described, [15]. PTPSL (residues 332–655, human), STEP (residues 213–539, mouse) and PSChimera (PTPSL residues 332–373 with STEP residues 257–539; gene synthesized by DNA 2.0) were expressed and purified using the protocol previously described in detail for STEPCAT (residues 244–539). The DUSP16 MAPK binding domain (residues 5–138, human) was expressed and purified as previously described. All purified proteins were stored at −80 °C until use at which point they were thawed and exchanged into the appropriate buffer using size exclusion chromatography (SEC; Superdex 75 26/60; GE Healthcare). The final protein buffer was dependent on the experiment performed. For ITC experiments, the final SEC purification was performed in ITC buffer (10 mM Tris pH 7.5, 150 mM NaCl, 0.1 mM EDTA, 0.5 mM TCEP); for SAXS experiments, the final SEC purification was performed in SAXS buffer (50 mM HEPES pH 6.8, 150 mM NaCl, 5 mM dithiothreitol). PTPSLKIM, STEPKIM and STEPKIMKIS peptides were solubilized in ITC buffer prior to ITC measurements.
ITC experiments were performed at 25 °C using a VP-ITC microcalorimeter (Microcal Inc.). Titrant (10 μL per injection) was injected into the sample cell over a period of 20 seconds with a 250 second interval between titrations to allow for complete equilibration and baseline recovery. 28 injections were delivered during each experiment and the solution in the sample cell was stirred at 307 rpm to ensure rapid mixing. To determine the thermodynamic parameters (ΔH, ΔS, ΔG) and binding constants (K) of the ERK2:PTPSLKIM, ERK2:PTPSL, ERK2:STEP and ERK2:PSChimera interactions, PTPSLKIM, PTPSL, STEP and PSChimera were titrated into ERK2. To determine the same parameters for the ERK2:STEPKIM, ERK2:PTPSLKIMKIS and ERK2:STEPKIMKIS interaction, ERK2 was titrated into the peptides. Titrants were chosen based on the amount of purified protein/peptide available for the experiment. For all titrations the concentrations were slightly varied to ensure independence of the Kd from the protein/peptide concentrations. Data were analyzed with a one-site binding model assuming a binding stoichiometry of 1∶1 using Origin 7.0 software. A nonlinear least-squares algorithm and the titrant and sample cell concentrations were used to fit the heat flow per injection to an equilibrium binding equation, providing values of the stoichiometry (n), change in enthalpy (ΔH) and binding constant (K). All data were repeated in triplicate.

The target of test [4] is T2, extracellular signal-regulated kinase 2 (ERK2), unphosphorylated (UniProt P63086 1-358).
T2 construct: ERK2 (extracellular signal-regulated kinase 2), unphosphorylated; also called MAPK; source: final SEC (Superdex 75 26/60)
Kind of test: ITC; ERK2 titrated into STEPKIM, PTPSL KIMKIS or STEP KIMKIS in the cell; 25 °C; 10 mM Tris pH 7.5, 150 mM NaCl, 0.1 mM EDTA, 0.5 mM TCEP; one-site model; triplicate. To be noted: both partners purified.

Test [5] has as its target T2, extracellular signal-regulated kinase 2 …. As to the kind of experiment: ITC; PTPSLKIM, PTPSL, STEP or PSChimera titrated into ERK2 in the cell; 25 °C; 10 mM Tris pH 7.5, 150 mM NaCl, 0.1 mM EDTA, 0.5 mM TCEP; one-site model; triplicate. To be noted: both partners purified.
Test [6] addresses T1, ERK2. To be noted: ref [16], cited from earlier work.
The mark [7] stands for this setting: ERK2:HePTP resting-state complex.

On to “HePTPKIM: HePTP KIM-peptide (residues 15–31) (TLSLGAAMTQPPPEKTP; KIM peptide; UniProt P35236 15-31, looked up, fragment) [reference compound]”, for which, in test [1], the Kd was 5150 ± 1290 nM. In test [2], the Kd was 1280 ± 110 nM and the “tighter binding to ERK2 than to p38α” value was about 4 times. The “differences in affinity of KIM peptides for ERK2 versus p38α” value in test [3] (KIM peptides of the KIM-PTPs) was determined as 4.0.
As for “HePTPKIMKIS: HePTP KIMKIS peptide, values previously published (VRLQERRGSNVALMLDVRSLGAVEPICSVNTPREVTLHFLRT)”, the Kd in test [2] was 679 ± 122 nM.

B1: STEPKIM peptide (STEP residues 213-229) (peptide, UniProt P54830 213-229, looked up)
peptide: MGLQERRGSNVSLTLDM
notes: STEP (PTPN5, striatal enriched protein tyrosine phosphatase), residues 213-229 (KIM); mouse is stated for the STEP 213-539 construct; source: synthetic peptide (Biosynthesis, Inc.), HPLC purified, >98% purity
B1 showed a Kd in test [4] of 546 nM.

B2: PS_(Chimera) (PTPSL residues 332-373 with STEP residues 257-539) (other, human | mouse, UniProt Q15256 332-373, looked up)
chain: GLQERRGSNVSLTLDMSSLGNIEPFVSIPTPREKVAMEYLQSASRVLRAEELHEKALDPFLLQAEFFEIPMNFVDPKEYDIPGLVRKNRYKTILPNPHSRVRLTSPDPEDPLSSYINANYIRGYSGEEKVYIATQGPIVSTVADFWRMVWQERTPIIVMITNIEEMNEKCTEYWPEEQVVHDGVEITVQKVIHTEDYRLRLISLRRGTEERSLKHYWFTSWPDQKTPDRAPPLLHLVREVEEAAQQEGPHCSPIIVHCSAGIGRTGCFIATSICCQQLRREGVVDILKTTCQLRQDRGGMIQTCEQYQFVHHAMSLYEKQLSLQS
notes: PTPSL (PTPRR), residues 332-373 (KIM and KIS); human is stated for the PTPSL 332-655 construct; STEP (PTPN5), residues 257-539 (catalytic domain); mouse is stated for the STEP 213-539 construct; Chimera of PTPSL KIMKIS fused to STEPCAT; source: gene synthesized by DNA 2.0; final SEC
As to B2, the “relative binding to p38α (in words)” value in test [1] was “binds marginally more tightly to p38α than any of the WT-KIM-PTPs”. Moreover, the “relative binding to ERK2 (in words)” value in test [3] (ERK2, ITC) was “binds to ERK2 with about equal binding strength as STEP”. In test [3] (unphosphorylated ERK2, ITC, 25 °C, 10 mM Tris pH 7.5, 150 mM NaCl, 0.1 mM EDTA, 0.5 mM TCEP, average and standard deviation, triplicate), this molecule came in with a TΔS of -8.5 ± 0.7 kcal/mol. In test [5], this molecule displayed a Kd of 47 nM and a dH of -18.5 kcal/mol.

B3: PTPSL KIMKIS (PTPSL residues 332-373) (peptide, UniProt Q15256 332-373, looked up)
chain: GLQERRGSNVSLTLDMSSLGNIEPFVSIPTPREKVAMEYLQS
notes: PTPSL/PTPBR7 (PTPRR), residues 332-373 (KIM and KIS); human is stated for the PTPSL 332-655 construct; Recombinant, not synthetic; source: final SEC
In test [4], B3 returned a dissociation constant Kd of 825 nM.

B4: HePTP: HePTP (residues 15–339), hematopoietic protein tyrosine phosphatase (protein, UniProt P35236 15-339, looked up, fragment)
chain: TLSLGAAMTQPPPEKTPAKKHVRLQERRGSNVALMLDVRSLGAVEPICSVNTPREVTLHFLRTAGHPLTRWALQRQPPSPKQLEEEFLKIPSNFVSPEDLDIPGHASKDRYKTILPNPQSRVCLGRAQSQEDGDYINANYIRGYDGKEKVYIATQGPMPNTVSDFWEMVWQEEVSLIVMLTQLREGKEKCVHYWPTEEETYGPFQIRIQDMKECPEYTVRQLTIQYQEERRSVKHILFSAWPDHQTPESAGPLLRLVAEVEESPETAAHPGPIVVHCSAGIGRTGCFIATRIGCQQLKARGEVDILGIVCQLRLDRGGMIQTAEQ
Consider B4, for which, in test [1], the dissociation constant (Kd) is 2570 ± 650 nM. Moreover, in test [2], the dissociation constant Kd is 371 ± 40 nM and the “tighter binding to ERK2 than to p38α” value was about 7 times. Also, in test [6] (setting [7]), the “maximum dimension (Dmax)” value was 110 Å and the “radius of gyration (Rg)” value was 33.3 Å. The “shape of the complex with ERK2 (in words)” value in test [6] (resting-state complex, SAXS) is recorded as “highly extended in solution”.

B5: PTPSLKIM peptide (PTPSL residues 331-348) (peptide, UniProt Q15256 331-348, looked up)
peptide: IGLQERRGSNVSLTLDMS
notes: PTPSL/PTPBR7 (PTPRR, PTP STEP-like), residues 331-348 (KIM); human is stated for the PTPSL 332-655 construct; source: synthetic peptide (Biosynthesis, Inc.), HPLC purified, >98% purity
In test [5], B5 had a Kd of 463 nM and a dH of -23.5 kcal/mol.

B6: STEP KIMKIS peptide (STEP residues 213-256) (peptide, UniProt P54830 213-256, looked up)
peptide: MGLQERRGSNVSLTLDMCTPGCNEEGFGYLVSPREESAHEYLLS
notes: STEP (PTPN5), residues 213-256 (KIM and KIS); mouse is stated for the STEP 213-539 construct; source: synthetic peptide (Biosynthesis, Inc.), HPLC purified, >98% purity
In test [4], B6 had a dissociation constant (Kd) of 123 nM.

These data come from PMC3956856, “Interaction of Kinase-Interaction-Motif Protein Tyrosine Phosphatases with the Mitogen-Activated Protein Kinase ERK2” (PLoS ONE, 2014).
